Test results from patent US20260049134A1 (UNIVERSITY OF FLORIDA RESEARCH FOUNDATION, published 2026).
Where a chain is given by its changes, count along the chain named. Numbers in names are those of the source.

Assays:
Experiment in all cases: ELISA on coated protein
DCC = molecular target: T1, DCC
T1 construct: also called DCC-His (R&D Systems)
T1 chain: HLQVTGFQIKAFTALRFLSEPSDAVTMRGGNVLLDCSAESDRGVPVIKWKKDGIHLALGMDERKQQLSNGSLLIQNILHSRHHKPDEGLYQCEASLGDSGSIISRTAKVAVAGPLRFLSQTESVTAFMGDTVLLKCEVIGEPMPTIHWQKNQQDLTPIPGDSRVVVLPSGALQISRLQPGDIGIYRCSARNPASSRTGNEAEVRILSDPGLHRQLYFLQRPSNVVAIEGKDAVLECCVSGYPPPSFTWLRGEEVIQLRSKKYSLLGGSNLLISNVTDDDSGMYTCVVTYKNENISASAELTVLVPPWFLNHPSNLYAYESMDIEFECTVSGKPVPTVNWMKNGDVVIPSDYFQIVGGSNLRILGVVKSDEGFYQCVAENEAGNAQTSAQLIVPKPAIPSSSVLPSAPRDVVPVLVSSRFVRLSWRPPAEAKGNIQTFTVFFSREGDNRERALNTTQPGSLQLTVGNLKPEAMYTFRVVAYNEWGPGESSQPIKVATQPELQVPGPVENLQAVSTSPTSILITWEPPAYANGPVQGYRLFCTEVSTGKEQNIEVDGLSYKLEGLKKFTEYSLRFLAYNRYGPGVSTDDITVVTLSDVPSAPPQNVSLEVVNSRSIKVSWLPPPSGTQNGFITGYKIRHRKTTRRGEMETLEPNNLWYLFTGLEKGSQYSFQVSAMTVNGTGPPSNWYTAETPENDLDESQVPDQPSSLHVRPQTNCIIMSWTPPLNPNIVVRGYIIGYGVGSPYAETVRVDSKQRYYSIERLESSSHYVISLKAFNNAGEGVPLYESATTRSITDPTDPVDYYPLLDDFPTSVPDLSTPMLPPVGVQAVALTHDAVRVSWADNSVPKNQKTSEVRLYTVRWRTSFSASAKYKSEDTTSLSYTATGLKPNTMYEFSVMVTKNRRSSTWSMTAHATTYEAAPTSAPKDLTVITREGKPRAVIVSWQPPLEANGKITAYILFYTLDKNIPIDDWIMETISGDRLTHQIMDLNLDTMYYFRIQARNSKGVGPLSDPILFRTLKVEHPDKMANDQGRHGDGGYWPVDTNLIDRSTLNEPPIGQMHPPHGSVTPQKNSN
Method: (§1) Recombinant purified ECDs (50-150 ng) of each putative target protein were coated, incubated with 150 ng of the indicated primary antibody, and binding was detected using a peroxidase-conjugated anti-human Fab secondary antibody. Heatmap represents averages of technical triplicates. (8B) Target validation via siRNA knockdown. H929 cells were transfected with siRNA pools targeting the putative antibody targets ICAM1, CADM1, and PTPRG. Cells were then subjected to cognate IgG binding analysis via flow cytometry. (NT, non-targeting siRNA).
(§2) ELISA ELISA was conducted as described previously. Briefly, 50-150 ng of antigen was coated overnight in half-area 96-well plates at 4° C., blocked with 3% BSA at 37° C. for 1 h, and 150 ng of chimeric rabbit/human IgG1 was added, incubating for 2 h at 37° C. […] After incubating at 37° C. for 15 min-1 h (depending on intensity of controls), data were acquired using a SpectraMax M5 plate reader (Molecular Devices).

IL13RA1 = molecular target: T2, IL13RA1
T2 construct: also called IL13RA1-Fc-His (R&D Systems)
T2 chain: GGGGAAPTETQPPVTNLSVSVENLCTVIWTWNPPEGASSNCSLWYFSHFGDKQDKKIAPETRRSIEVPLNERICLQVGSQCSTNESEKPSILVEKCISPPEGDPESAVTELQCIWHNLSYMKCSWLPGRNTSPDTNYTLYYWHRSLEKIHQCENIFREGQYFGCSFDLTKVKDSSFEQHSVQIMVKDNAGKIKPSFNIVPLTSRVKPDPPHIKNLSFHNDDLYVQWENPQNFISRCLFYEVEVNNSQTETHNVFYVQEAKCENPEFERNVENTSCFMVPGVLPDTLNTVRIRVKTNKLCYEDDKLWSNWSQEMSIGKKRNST
Method: as §1, §2

SELL = molecular target: T3, SELL
T3 construct: also called SELL-Fc-His (R&D Systems); L-Selectin
T3 chain: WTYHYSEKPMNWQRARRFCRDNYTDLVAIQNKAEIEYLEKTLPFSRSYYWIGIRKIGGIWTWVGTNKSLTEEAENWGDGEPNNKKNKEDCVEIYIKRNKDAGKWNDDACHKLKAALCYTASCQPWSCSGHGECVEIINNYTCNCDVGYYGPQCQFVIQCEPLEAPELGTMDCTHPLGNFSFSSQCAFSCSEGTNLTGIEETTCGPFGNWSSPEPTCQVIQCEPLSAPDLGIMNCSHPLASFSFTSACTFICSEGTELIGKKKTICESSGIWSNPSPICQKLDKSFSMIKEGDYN
Method: as §1, §2

PTP4A3 = molecular target: T4, PTP4A3
T4 construct: also called His-PTP4A3 (R&D Systems)
T4 sequence (chain, as listed by the source limits assumed): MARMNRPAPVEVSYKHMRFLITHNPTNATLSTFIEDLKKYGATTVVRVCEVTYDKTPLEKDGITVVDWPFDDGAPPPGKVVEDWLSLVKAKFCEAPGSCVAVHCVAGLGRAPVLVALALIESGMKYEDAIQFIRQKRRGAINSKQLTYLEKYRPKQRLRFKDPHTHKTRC
Method: as §1, §2

SLAMF7 = molecular target: T5, SLAMF7
T5 construct: also called SLAMF7-StrepTag; not shown: StrepTag and any linker
T5 chain: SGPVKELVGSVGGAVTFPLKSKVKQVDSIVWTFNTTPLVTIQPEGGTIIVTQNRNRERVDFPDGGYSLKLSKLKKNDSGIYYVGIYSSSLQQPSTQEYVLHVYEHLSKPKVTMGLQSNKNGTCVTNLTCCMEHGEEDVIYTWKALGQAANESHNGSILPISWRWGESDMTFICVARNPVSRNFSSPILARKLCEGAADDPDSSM
Method: as §1, §2

ANXA1 = molecular target: T6, ANXA1
T6 construct: also called ANXA1-His (R&D Systems); not shown: His tag
T6 chain: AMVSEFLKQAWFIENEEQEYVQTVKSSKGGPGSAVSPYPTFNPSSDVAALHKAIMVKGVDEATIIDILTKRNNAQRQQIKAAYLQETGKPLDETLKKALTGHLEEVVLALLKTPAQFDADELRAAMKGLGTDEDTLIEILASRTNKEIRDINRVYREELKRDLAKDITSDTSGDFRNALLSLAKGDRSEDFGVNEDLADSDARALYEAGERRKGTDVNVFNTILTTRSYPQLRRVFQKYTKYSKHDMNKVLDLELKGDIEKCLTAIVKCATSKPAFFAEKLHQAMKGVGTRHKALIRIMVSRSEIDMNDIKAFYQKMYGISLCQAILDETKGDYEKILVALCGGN
Method: as §1, §2

ICAM1-Fc (R&D Systems) = molecular target: T7, ICAM1-Fc (R&D Systems) (human, UniProt P05362 28-480)
T7 construct: Bought; also called ICAM-1/CD54; not shown: Fc of the bought fusion protein
T7 sequence (P05362 28-480): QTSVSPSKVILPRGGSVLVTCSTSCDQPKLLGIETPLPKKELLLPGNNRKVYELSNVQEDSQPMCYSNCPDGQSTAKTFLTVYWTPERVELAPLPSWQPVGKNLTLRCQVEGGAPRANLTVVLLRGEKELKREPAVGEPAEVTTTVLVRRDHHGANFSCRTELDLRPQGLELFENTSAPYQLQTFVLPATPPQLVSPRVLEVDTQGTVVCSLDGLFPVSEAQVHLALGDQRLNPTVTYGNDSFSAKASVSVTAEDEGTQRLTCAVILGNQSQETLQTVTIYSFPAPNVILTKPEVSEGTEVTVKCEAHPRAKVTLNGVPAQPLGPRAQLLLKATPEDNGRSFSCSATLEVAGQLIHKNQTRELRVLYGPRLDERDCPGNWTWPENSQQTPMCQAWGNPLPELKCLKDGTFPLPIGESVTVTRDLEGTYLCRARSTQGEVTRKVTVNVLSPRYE
Method: as §1, §2

B1: HW-8 chimeric rabbit-human IgG1 LA/LA/PG (antibody, V domains shown)
VH: QSLEESGGRLVTPGTPLTLTCTVSGFSLSSYAMSWVRQAPGKGLEWIGAISTGGSTTYASWAKGRFTISKTSSTTVDLKMTSLTTEDTATYFCVRHFRLWGPGTLVTISS
VL: QVLTQTPSSVSAAVGGTVTIKCQASQSIGSALAWFQQKPGQRPKLLIYRASNLASGVPSRFKGSGSGTEFALTISGVQREDAATYYCLGGAAAVWAFGAGTNVEIKR
notes: Fc-silenced (L234A/L235A/P329G) IgG1, kappa; Alexa Fluor 647-labeled in single-step flow cytometry; Cluster C-45
DCC
  binding result: no binding (tested: 150 ng IgG1 per well)
IL13RA1
  binding result: no binding (tested: 150 ng IgG1 per well)
SELL
  binding result: no binding (tested: 150 ng IgG1 per well)
PTP4A3
  binding result: no binding (tested: 150 ng IgG1 per well)
SLAMF7
  binding result: no binding (tested: 150 ng IgG1 per well)
ANXA1
  binding result: no binding (tested: 150 ng IgG1 per well)
ICAM1-Fc (R&D Systems)
  binding result: no binding (tested: 150 ng IgG1 per well)

B2: HW-97 chimeric rabbit-human IgG1 LA/LA/PG (antibody, V domains shown)
VH: QKQLVESGGRLVTPGTPLTLTCTVTGIDLSSHGMSWVRQAPGKGLEWIGVIYPSGSTWYASWARGRFTISKTSTTVDLKMTSLTTEDTATHFCARGDVGGADNNIWGPGTLVTVSS
VL: SFVLTQPASVQVDLGQTVSLTCTAETLSRSYASWYQQKPGQAPVLLIYRDTSRPSGVPDRFSGSSSGNTATLTISGAQAGDEADYYCATSDGSGSSYQYVFGGGTQLTVTG
notes: Fc-silenced (L234A/L235A/P329G) IgG1, lambda; Alexa Fluor 647-labeled in single-step flow cytometry; Prototype of cluster C-97
DCC
  binding result: no binding (tested: 150 ng IgG1 per well)
IL13RA1
  binding result: no binding (tested: 150 ng IgG1 per well)
SELL
  binding result: no binding (tested: 150 ng IgG1 per well)
PTP4A3
  binding result: no binding (tested: 150 ng IgG1 per well)
SLAMF7
  binding result: no binding (tested: 150 ng IgG1 per well)
ANXA1
  binding result: no binding (tested: 150 ng IgG1 per well)
ICAM1-Fc (R&D Systems)
  binding result: no binding (tested: 150 ng IgG1 per well)

B3: HW-101 chimeric rabbit-human IgG1 LA/LA/PG (antibody, V domains shown)
VH: QEQLVESGGRLVTPGTPLTLTCKASGFSLGKYDMSWVRQAPGKGLEWIGTIYAGSGSTWYASWAKGRFTISKTSTTVDLKMTSLTTEDTATYFCARDFLGVNSIWGPGTLVTISS
VL: B2 VL with D13N, E25D, G40D, Y48H, S65N, S96N, Y97F, Q98H, Y99F
notes: Fc-silenced (L234A/L235A/P329G) IgG1, lambda; Alexa Fluor 647-labeled in single-step flow cytometry; Cluster C-97
DCC
  binding result: no binding (tested: 150 ng IgG1 per well)
IL13RA1
  binding result: no binding (tested: 150 ng IgG1 per well)
SELL
  binding result: no binding (tested: 150 ng IgG1 per well)
PTP4A3
  binding result: no binding (tested: 150 ng IgG1 per well)
SLAMF7
  binding result: no binding (tested: 150 ng IgG1 per well)
ANXA1
  binding result: no binding (tested: 150 ng IgG1 per well)
ICAM1-Fc (R&D Systems)
  binding result: no binding (tested: 150 ng IgG1 per well)

B4: TH9-0022 (antibody, human IgG1, kappa, L234A L235A, V domains shown)
VH: QSLEESGGRLVTPGTPLTLTCTVSGFSLSSYAMNWVRQAPGKGLEWIGIINSYGSTYYASWAKGRFTISKTSTTVDLKITSPTTEDTATYFCARVTYDSYGYGYAPYGMDLWGPGTLVTVSS
VL: LVMTQTPSSTSNAVGGTVTIKCQASQSIGNVLAWYQQKPGQPPKLLIYAASTLASGVPSRVGGSRSGTEYTLTISGVQREDAATYYCLGSDSDSDIAFGGGTELEILR
notes: also called TH9-022; negative control IgG1
DCC
  binding result: no binding (tested: 150 ng IgG1 per well)
IL13RA1
  binding result: no binding (tested: 150 ng IgG1 per well)
SELL
  binding result: no binding (tested: 150 ng IgG1 per well)
PTP4A3
  binding result: no binding (tested: 150 ng IgG1 per well)
SLAMF7
  binding result: no binding (tested: 150 ng IgG1 per well)
ANXA1
  binding result: no binding (tested: 150 ng IgG1 per well)
ICAM1-Fc (R&D Systems)
  binding result: no binding (tested: 150 ng IgG1 per well)
